6 molecules from article PMC3402500, “Genes for Carbon Metabolism and the ToxA Virulence Factor in Pseudomonas aeruginosa Are Regulated through Molecular Interactions of PtxR and PtxS” (PLoS ONE, 2012) can be followed below.

T1: PtxS (Pseudomonas aeruginosa PAO1) (UniProt G3XD97)
T1 sequence: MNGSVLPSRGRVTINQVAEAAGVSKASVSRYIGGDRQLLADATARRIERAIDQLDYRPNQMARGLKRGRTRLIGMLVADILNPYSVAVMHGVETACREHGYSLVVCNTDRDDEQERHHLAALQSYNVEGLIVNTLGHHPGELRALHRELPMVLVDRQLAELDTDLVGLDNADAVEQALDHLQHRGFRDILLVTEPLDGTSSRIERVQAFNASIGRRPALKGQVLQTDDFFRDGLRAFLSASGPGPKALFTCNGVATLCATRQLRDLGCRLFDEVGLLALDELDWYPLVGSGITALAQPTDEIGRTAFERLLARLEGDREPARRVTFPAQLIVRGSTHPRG

T2: PtxR (Pseudomonas aeruginosa PAO1) (UniProt P72131)
T2 sequence: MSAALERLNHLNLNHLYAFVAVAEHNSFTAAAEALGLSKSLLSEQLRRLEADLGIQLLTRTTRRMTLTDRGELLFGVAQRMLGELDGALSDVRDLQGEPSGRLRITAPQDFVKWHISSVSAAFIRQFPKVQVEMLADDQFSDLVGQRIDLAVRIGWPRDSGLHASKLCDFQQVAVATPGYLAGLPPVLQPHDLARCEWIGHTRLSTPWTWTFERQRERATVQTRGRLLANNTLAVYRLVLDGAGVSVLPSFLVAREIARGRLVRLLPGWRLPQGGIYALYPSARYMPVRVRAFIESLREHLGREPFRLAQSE

T3: PtxR;PtxS (Pseudomonas aeruginosa PAO1;Pseudomonas aeruginosa PAO1) (UniProt P72131+G3XD97)
T3 sequence 1: T2 sequence
T3 sequence 2: T1 sequence

T4: PtxS (Pseudomonas aeruginosa PAO1, UniProt G3XD97 1-340)
T4 sequence: T1 sequence

T5: PtxR (Pseudomonas aeruginosa PAO1, UniProt P72131 1-312)
T5 sequence: T2 sequence

B1: PtxR (natural protein)
chain: T2 sequence
notes: PtxR, LysR-type transcriptional regulator of Pseudomonas aeruginosa PAO1; ptxR gene amplified from chromosomal DNA and cloned NheI/XhoI into pET24b(+); The NheI/XhoI cloning into pET24b(+) may add a few vector residues at both ends; source: E. coli BL21 (DE3), purified (His-Trap chelating column); not shown: His6, C-terminal, kept
B2: PtoxA 50-mer (-58 to -8) (dsDNA)
DNA 1: GATATCGGCTGCTGGCCAGGGGCGCCAGCGCCGACAGCCTCGTGCTTCAA
DNA 2: TTGAAGCACGAGGCTGTCGGCGCTGGCGCCCCTGGCCAGCAGCCGATATC
B3: PtxS (natural protein)
chain: T1 sequence
notes: PtxS, LacI family transcriptional regulator of Pseudomonas aeruginosa PAO1; ptxS gene amplified from chromosomal DNA and cloned NheI/XhoI into pET24b(+); The NheI/XhoI cloning into pET24b(+) may add a few vector residues at both ends; source: E. coli BL21 (DE3), purified (His-Trap chelating column); not shown: His6, C-terminal, kept
B4: PtoxA 50-mer mutant operator (dsDNA)
DNA 1: GATATCGGCTGCTGGCCAGGCCGACAGCCTCGTGCTTCAA
DNA 2: TTGAAGCACGAGGCTGTCGGCCTGGCCAGCAGCCGATATC

Data set [1] addresses T1, PtxS (Pseudomonas aeruginosa PAO1). Nature of the data set: EMSA. The following applies: ITC: 50 mM HEPES pH 7.9, 300 mM NaCl, 1 mM DTT, 10% glycerol, 20 C. EMSA/footprint: 50 mM Tris-HCl pH 7.5, 10 mM NaCl, 0.5 M Mg acetate (so in the source), 0.1 mM …. In general terms: A gel shift assay detects complexes by their altered migration in electrophoresis.
The target of data set [2] is T2, PtxR (Pseudomonas aeruginosa PAO1). Nature of the data set: EMSA. The following applies: ITC: 50 mM HEPES pH 7.9, 300 mM NaCl, 1 mM DTT, 10% glycerol, 20 C. EMSA/footprint: 50 mM Tris-HCl pH 7.5, 10 mM NaCl, 0.5 M Mg acetate (so in the source), 0.1 mM ….
Data set [3] concerns the target T1, PtxS (Pseudomonas aeruginosa PAO1). Nature of the data set: DNase I footprinting. The following applies: ITC: 50 mM HEPES pH 7.9, 300 mM NaCl, 1 mM DTT, 10% glycerol, 20 C. EMSA/footprint: 50 mM Tris-HCl pH 7.5, 10 mM NaCl, 0.5 M Mg acetate (so in the source), 0.1 mM ….
Data set [4] concerns the target T3, PtxR;PtxS (Pseudomonas aeruginosa PAO1;Pseudomonas aeruginosa PAO1). The data set is described as follows: DNase I footprinting. The following applies: ITC: 50 mM HEPES pH 7.9, 300 mM NaCl, 1 mM DTT, 10% glycerol, 20 C. EMSA/footprint: 50 mM Tris-HCl pH 7.5, 10 mM NaCl, 0.5 M Mg acetate (so in the source), 0.1 mM ….
The target of data set [5] is T2, PtxR (Pseudomonas aeruginosa PAO1). The data set is described as follows: DNase I footprinting. The conditions noted are these: ITC: 50 mM HEPES pH 7.9, 300 mM NaCl, 1 mM DTT, 10% glycerol, 20 C. EMSA/footprint: 50 mM Tris-HCl pH 7.5, 10 mM NaCl, 0.5 M Mg acetate (so in the source), 0.1 mM ….
Data set [6] addresses B3. The data set is described as follows: native gel or EMSA; native polyacrylamide gel, 10 µM homogeneous PtxS, PtxR or both mixed, 1 h at 120 V, Coomassie stain, confirmed by western blot with an anti-His tag antibody. The conditions noted are these: both partners purified.
For another data set, the target named is PtxR K39A (Pseudomonas aeruginosa PAO1, UniProt P72131 1-312, K39A). The data set is described as follows: ITC; ITC: 50 mM HEPES pH 7.9, 300 mM NaCl, 1 mM DTT, 10% glycerol, 20 C. EMSA/footprint: 50 mM Tris-HCl pH 7.5, 10 mM NaCl, 0.5 M Mg acetate (so in the source), 0.1 mM EDTA, 1 mM DTT, 5% glycerol, 30 C; EMSA with 20 ug/ml poly(dIC), 200 ug/ml BSA. The following applies: protein: recombinant; tags: C-terminal His6 (pET24b); chain copies: 4; blunt. On the technique in general: ITC needs no label: the signal is the heat of the interaction.

For a further data set, the target named is PtxR E44A (Pseudomonas aeruginosa PAO1, UniProt P72131 1-312, E44A). The description is as above. The following applies: protein: recombinant; tags: C-terminal His6 (pET24b); chain copies: 4; blunt.
For data set [7], the target named is T4, PtxS. The description is as above. The conditions noted are these: protein: recombinant; tags: C-terminal His6 (pET24b); chain copies: 2; blunt.
Data set [8] has as its target T5, PtxR. Described as above. The conditions noted are these: protein: recombinant; tags: C-terminal His6 (pET24b); chain copies: 4; blunt.
A further data set has as its target PtxR S40A (Pseudomonas aeruginosa PAO1, UniProt P72131 1-312, S40A). The data set is described as above. The conditions noted are these: protein: recombinant; tags: C-terminal His6 (pET24b); chain copies: 4; blunt.
The target in a further data set is PtxR D52A (Pseudomonas aeruginosa PAO1, UniProt P72131 1-312, D52A). Described as above. The following applies: protein: recombinant; tags: C-terminal His6 (pET24b); chain copies: 4; blunt.
The target of another data set is PtxR R47A (Pseudomonas aeruginosa PAO1, UniProt P72131 1-312, R47A). Described as above. The following applies: protein: recombinant; tags: C-terminal His6 (pET24b); chain copies: 4; blunt.
For data set [9], the target named is B1. The data set is described as follows: ITC; free proteins; 50 µM PtxS in 3.2 µl aliquots into PtxR (3 µM by the legend); 20°C, 50 mM HEPES pH 7.9, 300 mM NaCl, 1 mM dithiothreitol, 10% glycerol; two binding site model. The conditions noted are these: both partners purified.
Data set [10] deals with B1. Nature of the data set: ITC; 5 µM PtxR saturated beforehand with 50 µM duplex DNA of P_(toxA) holding the PtxR operator, titrated with 50 µM PtxS; 20°C, 50 mM HEPES pH 7.9, 300 mM NaCl, 1 mM dithiothreitol, 10% glycerol; two binding site model. The conditions noted are these: both partners purified.

Turning to “CAACTGATCGTTCGCGGCTCGACCCATCCACGCGGCTAGCGGCCCGCCGCCGGCGCGTTGCCGGCGGCTTTCGCACGGCTTGAAATGAAACCGGTTTCAGAGGATCGCCAATGTCCCTTCACCCCGTCTCCATCAGTCTTTCCAGCTATGGCGCGGACCTCGTTCGCAGTCGCGGCCAGGCCAGCTTCCTGCCCTTGCTGGCGATGGCCGGCGCGCAGCGCGTGGAACTGCGCGAGGAACTCTTCGCCGGCCCGCCGGATACCGAGGCGCTGACCGCCGCCATCCAGTT (double strand) [Pkgu promoter fragment]”, the binding entry in data set [1] and in [2] was “binds” each time.

For the molecule “CCGTTGACGGCCTTGTCATCGGGCATGGTGGGGTCCTCTCTGGATCATCACGGTTTCGTCTTTCTGATAATGATTAGCAGGCTAATTATAAGTTCATGTGTCACGTTGAAAAAACGTTTCAGCAAGGATTCAGGCAGGCCAATACCGGCAAGTGAAGCAGAACGGCGCGCCGGGCGTCGGCCCGGCGCGGCCTTCAGGCGCCTCGCCGTCGCGCCCAGGCCGAAGGATTGACCAGGTTCAGCGGCC (double strand) [Pgad promoter fragment]”, the binding result in data set [1], in data set [2], in [3], in [4] and in data set [5] was “binds” in each case.

Take B1: the binding result with PtxS [6] is “binds”.

Broadly, the Kd is a measure of binding affinity in units of concentration. B2: the binding result with PtxR K39A, in the data set with PtxR E44A, in the data set with PtxS [7], in the data set with PtxR S40A and with PtxR D52A was “no binding” throughout. The Kd stood at 164 ± 6 nM with PtxR [8] and 240 ± 11 nM with PtxR R47A.

One may read the stoichiometry N as the number of molecules, sites or subunits per partner or assembly. Turning to B3, in the data set with PtxR [9], the “KD of the first, high affinity event” value is 12 ± 3 nM; the “KD of the second, lower affinity event” value came to 102 ± 10 nM; the “dH of the first, high affinity event” value was -17.8 ± 0.9 kcal/mol; the “dH of the second, lower affinity event” value is -9.1 ± 0.5 kcal/mol. Moreover, the “stoichiometry N” value with PtxR [9] is 1.02. In the data set with PtxR [10], the “KD of the first event, PtxR bound to DNA” value is approximately 1700 nM and the “KD of the second event, PtxR bound to DNA” value was approximately 8200 nM.

As to B4, the binding result in the data set with PtxR [8] was “no binding”.
